Target: T1, yeast Twinfilin (Twf1), full-length (1-332) (yeast, UniProt P53250 1-332)
T1 sequence: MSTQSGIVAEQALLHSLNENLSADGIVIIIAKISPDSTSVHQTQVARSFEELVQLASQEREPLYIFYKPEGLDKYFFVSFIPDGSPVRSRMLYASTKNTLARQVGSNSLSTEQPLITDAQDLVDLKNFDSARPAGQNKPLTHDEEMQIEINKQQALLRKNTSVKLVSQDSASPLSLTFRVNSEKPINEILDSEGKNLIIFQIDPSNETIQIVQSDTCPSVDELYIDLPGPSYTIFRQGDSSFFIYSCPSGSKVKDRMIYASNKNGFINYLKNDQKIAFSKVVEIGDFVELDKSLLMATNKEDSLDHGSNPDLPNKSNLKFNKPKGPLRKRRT
Test: negative-stain electron microscopy

- binding result: binds
B1: N-Srv2 (1-259) (domain or fragment)
chain: MPDSKYTMQGYNLVKLLKRLEEATARLEDVTIYQEGYIQNKLEASKNNKPSDSGADANTTNEPSAENAPEVEQDPKCITAFQSYIGENIDPLVELSGKIDTVVLDALQLLKGGFQSQLTFLRAAVRSRKPDYSSQTFADSLRPINENIIKLGQLKESNRQSKYFAYLSALSEGAPLFSWVAVDTPVSMVTDFKDAAQFWTNRILKEYRESDPNAVEWVKKFLASFDNLKAYIKEYHTTGVSWKKDGMDFADAMAQSTKN
